Positions of bridges follow the written chain, without caps; N, C: chain ends. No end group written: not given here.
Key:
[1] = target: T1, guanylate cyclase receptor (Homo sapiens, UniProt P25092); assay: T84 cell-based assay for determining the intracellular levels of cGMP; conditions: for intracellular production of cGMP at different pH values: pH 5 to 7
T1 construct: host or cells: T84 human colon carcinoma cells

[2] = Heat stability: peptide solutions heated at 95° C., then tested for biological activity in the T84 cell-based assay; format: physicochemical; conditions: 10 micromolar solution, read-out T84 cell-based assay
Method: (§1) T84 cell-based assay for determining the intracellular levels of cGMP: Peptide analogs were custom synthesized by Multiple Peptide Systems, San Diego, Calif., and by Princeton Biomolecules, Langhorne, Pa. Biological activity of the synthetic peptides was assayed as previously reported (15). Briefly, the confluent monolayers of T-84 cells in 24-well plates were washed twice with 250 μl of DMEM containing 50 mM HEPES (pH 7.4), pre-incubated at 37° C. for 10 min with 250 μl of DMEM containing 50 mM HEPES (pH 7.4) and 1 mM isobutylmethylxanthine (IBMX), followed by incubation with peptide analogs (0.1 nM to 10 μM) for 30 min. The medium was aspirated, and the reaction was terminated by the addition of 3% perchloric acid. Following centrifugation, and neutralization with 0.1 N NaOH, the supernatant was used directly for measurements of cGMP using an ELISA kit (Caymen Chemical, Ann Arbor, Mich.).
To examine heat stability, 10 micromolar solutions of peptide analogs were heated at 95° C. for up to 90 minutes. At specific times during the treatment, samples were tested for their biological activity in the T84 cell-based assay. […] Based on energy calculations and 3D structure, we expected that the negatively charged carboxyl group of the side chain in position 3 of SEQ ID NO:1 specifically interacts with a positively charged binding site on the receptor. […] At the same time, to ensure efficiency of this particular interaction, an entire system of the long-range electrostatic interactions between ligand and receptor should be well balanced. Since the Glu^2 side chain presents more conformational possibilities compared to the Asp^2 side chain, this balance may be slightly changed in SP302 (double substitution of Asp's for Glu's) compared to SP304 (single substitution of Asp^3 for Glu^3). Indeed, biological activity of SP 304 is the best amongst the analogs evaluated.

[3] = target: T1, guanylate cyclase receptor; assay: T84 cell-based assay for determining the intracellular levels of cGMP; conditions: for ability to enhance intracellular levels of cGMP (ranking in words): T84 cell-based assay, text summary of Table 4; for cGMP Level (intracellular cGMP level observed in T84 cells): 1 micromolar peptide agonist, 30 minutes
Method: Cell Culture: Human T84 colon carcinoma cells were obtained from the American Type Culture Collection at passage 52. Cells were grown in a 1:1 mixture of Ham's F-12 medium and Dulbecco's modified Eagle's medium (DMEM) supplemented with 10% fetal bovine serum, 100 U penicillin/ml, and 100 μg/ml streptomycin. The cells were fed fresh medium every third day and split at a confluence of approximately 80%.
as §1

T1 sequence (P25092 24-1073): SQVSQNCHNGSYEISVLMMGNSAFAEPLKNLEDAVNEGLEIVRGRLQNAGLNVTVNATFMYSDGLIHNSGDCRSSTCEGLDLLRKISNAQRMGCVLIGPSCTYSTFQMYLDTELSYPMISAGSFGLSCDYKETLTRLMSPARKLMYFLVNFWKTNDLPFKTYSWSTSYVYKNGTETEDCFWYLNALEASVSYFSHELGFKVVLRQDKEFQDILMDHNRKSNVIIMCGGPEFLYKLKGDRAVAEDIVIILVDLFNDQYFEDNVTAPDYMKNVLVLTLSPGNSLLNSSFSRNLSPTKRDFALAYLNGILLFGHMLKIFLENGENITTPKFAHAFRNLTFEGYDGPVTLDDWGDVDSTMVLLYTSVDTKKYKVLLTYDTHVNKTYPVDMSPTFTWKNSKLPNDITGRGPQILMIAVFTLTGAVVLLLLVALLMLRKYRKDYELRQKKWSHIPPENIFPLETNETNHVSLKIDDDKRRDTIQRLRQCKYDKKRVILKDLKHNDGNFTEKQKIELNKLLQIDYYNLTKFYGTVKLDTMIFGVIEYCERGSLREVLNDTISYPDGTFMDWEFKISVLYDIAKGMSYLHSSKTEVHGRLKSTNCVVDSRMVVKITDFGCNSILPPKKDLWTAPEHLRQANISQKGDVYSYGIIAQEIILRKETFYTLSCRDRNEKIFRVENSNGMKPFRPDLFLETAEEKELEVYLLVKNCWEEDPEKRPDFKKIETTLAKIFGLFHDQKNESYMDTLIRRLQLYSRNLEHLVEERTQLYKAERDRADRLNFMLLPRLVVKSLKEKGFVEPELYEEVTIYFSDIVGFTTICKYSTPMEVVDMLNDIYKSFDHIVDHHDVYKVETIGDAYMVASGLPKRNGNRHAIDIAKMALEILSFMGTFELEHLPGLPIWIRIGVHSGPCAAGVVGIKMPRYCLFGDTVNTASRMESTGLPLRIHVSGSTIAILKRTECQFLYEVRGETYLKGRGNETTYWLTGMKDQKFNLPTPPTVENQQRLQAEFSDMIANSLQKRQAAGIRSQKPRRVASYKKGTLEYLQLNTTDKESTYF

| enhancement of intracellular cGMP, comparison among peptides ([1]; pH between 6.5 and 7) | ability to enhance intracellular levels of cGMP (ranking in words) [3] | cGMP Level (intracellular cGMP level observed in T84 cells) ([3]; T84 cells) [pmol/well] | intracellular cGMP level in combination with sulindac sulfone ([3]; T84 cells, combination with cGMP dependent phosphodiesterase inhibitor sulindac sulfone) | intracellular cGMP level in combination with Zaprinast ([3]; T84 cells, combination with cGMP dependent phosphodiesterase inhibitor zaprinast) | Substance | intracellular production of cGMP at different pH values [1] | biological activity after heating for 60 minutes [2] | biological activity after heating for 90 minutes, relative to original value [2] |
| --- | --- | --- | --- | --- | --- | --- | --- | --- |
| – | somewhat weaker | 195 | – | – | [Glu^2]-UG (NEDCELCVNVACTGCL; ends and bridges not checked; cysteine pairing not given here; UniProt Q16661 97-112, looked up, variant D2E) [SP 303, uroguanylin analog with Glu in position 2] | enhanced intracellular production of cGMP | did not change significantly | about 80% |
| – | somewhat weaker | 205 | – | – | bicyclo[4,12; 7,15]Asn^1-Asp^2-Asp^3-Cys^4-Glu^5-Leu^6-Cys^7-Val^8-Asn^9-Val^10-Ala^11-Cys^12-Thr^13-Gly^14-Cys^15-Leu^16 (NDDCELCVNVACTGCL; disulfide 4-12, 7-15; listed as Homo sapiens) [SP 301, human uroguanylin, parent compound, reference compound] | enhanced intracellular production of cGMP | did not change significantly | about 80% |

Further lines, the substance ahead of its results:

| Substance | enhancement of intracellular cGMP, comparison among peptides ([1]; pH between 6.5 and 7) | ability to enhance intracellular levels of cGMP (ranking in words) [3] | cGMP Level (intracellular cGMP level observed in T84 cells) ([3]; T84 cells) [pmol/well] | intracellular cGMP level in combination with sulindac sulfone ([3]; T84 cells, combination with cGMP dependent phosphodiesterase inhibitor sulindac sulfone) | intracellular cGMP level in combination with Zaprinast ([3]; T84 cells, combination with cGMP dependent phosphodiesterase inhibitor zaprinast) | intracellular production of cGMP at different pH values [1] | biological activity after heating for 60 minutes [2] | biological activity after heating for 90 minutes, relative to original value [2] |
| --- | --- | --- | --- | --- | --- | --- | --- | --- |
| Asn^1 Asp^2 Glu^3 Cys^4 Glu^5 Leu^6 Cys^7 Val^8 Asn^9 Val^10 Ala^11 Cys^12 Thr^13 Gly^14 Cys^15 Leu^16 (NDECELCVNVACTGCL; disulfide 4-12, 7-15) [SP 304, [Glu^3]-UG, [4,12; 7,15] bicycle with two disulfide linkages] | greatest enhancement | greatest enhancement of intracellular cGMP | 315 | synergistic increases | synergistic increases | enhanced intracellular production of cGMP | did not change significantly | remained unaltered |
| SP 316: 14-residue peptide Glu Cys Glu Leu Cys Val Asn Val Ala Cys Thr Gly Cys Leu, positions 3-16, disulfides 4-12 and 7-15 (ECELCVNVACTGCL; disulfide 2-10, 5-13) | – | second in effectiveness | 275 | – | – | – | – | – |
| [Glu^2, Glu^3]-UG (NEECELCVNVACTGCL; ends and bridges not checked; cysteine pairing not given here; UniProt Q16661 97-112, looked up, variant D2E D3E) [SP 302, uroguanylin analog, double substitution of Asp's for Glu's] | – | somewhat weaker | 225 | – | – | enhanced intracellular production of cGMP | did not change significantly | about 80% |
